In patent US10800847:

What was measured:
HLA-B*1510 (B71) (human) = experiment: Luminex iBeads (#6), IVIg diluted 1:4
HLA-B*1801 (B18) (human) = experiment: Luminex iBeads (#6), IVIg diluted 1:4
[1] = target: Serum albumin on negative control beads (HSA/BSA) (human or bovine); experiment: Luminex iBeads (#6), IVIg diluted 1:4
HLA-B*1402 (B65) (human) = experiment: Luminex iBeads (#6), IVIg diluted 1:4
HLA-B*1401 (B64) (human) = experiment: Luminex iBeads (#6), IVIg diluted 1:4
HLA-B*1513 (B77) (human) = experiment: Luminex iBeads (#6), IVIg diluted 1:4
HLA-B*1301 (B13) (human) = experiment: Luminex iBeads (#6), IVIg diluted 1:4
HLA-B*1516 (B63) (human) = experiment: Luminex iBeads (#6), IVIg diluted 1:4
HLA-B*1502 (B75) (human) = experiment: Luminex iBeads (#6), IVIg diluted 1:4
HLA-B*1511 (B75) (human) = experiment: Luminex iBeads (#6), IVIg diluted 1:4
HLA-B*1503 (B72) (human) = experiment: Luminex iBeads (#6), IVIg diluted 1:4
HLA-B*1501 (B62) (human) = experiment: Luminex iBeads (#6), IVIg diluted 1:4
HLA-B*0801 (B8) (human) = experiment: Luminex iBeads (#6), IVIg diluted 1:4
HLA-B*0702 (B7) (human) = experiment: Luminex iBeads (#6), IVIg diluted 1:4
[2] = target: HLA-A*3101 (A31) single antigen on beads (human); experiment: Luminex iBeads (#6), IVIg 1:4
[3] = target: HLA-A*3201 (A32) single antigen on beads (human); experiment: Luminex iBeads (#6), IVIg 1:4
[4] = target: HLA-A*6602 (A66) single antigen on beads (human); experiment: Luminex iBeads (#6), IVIg 1:4
[5] = target: HLA-A*2902 (A29) single antigen on beads (human); experiment: Luminex iBeads (#6), IVIg 1:4
[6] = target: HLA-A*6801 (A68) single antigen on beads (human); experiment: Luminex iBeads (#6), IVIg 1:4
[7] = target: HLA-A*3002 (A30) single antigen on beads (human); experiment: Luminex iBeads (#6), IVIg 1:4
[8] = target: HLA-A*8001 (A80) single antigen on Luminex beads (human); experiment: Luminex single antigen bead assay, iBeads (#6), IVIg 1:4
[9] = target: HLA-A*6802 (A68) single antigen on Luminex beads (human); experiment: as above
[10] = target: HLA-A*6901 (A69) single antigen on Luminex beads (human); experiment: as above
[11] = target: HLA-A*7401 (A74) single antigen on Luminex beads (human); experiment: as above
[12] = target: HLA-B*4006 (B61) single antigen on Luminex beads (human); experiment: Luminex single antigen, iBeads (#6), IVIg 1:8
[13] = target: HLA-B*4002 (B61) single antigen on Luminex beads (human); experiment: Luminex single antigen, iBeads (#6), IVIg 1:8
[14] = target: HLA-B*4402 (B44) single antigen on Luminex beads (human); experiment: Luminex single antigen, iBeads (#6), IVIg 1:8
[15] = target: HLA-B*4201 (B42) single antigen on Luminex beads (human); experiment: Luminex single antigen, iBeads (#6), IVIg 1:8
[16] = target: HLA-B*4501 (B45) single antigen on Luminex beads (human); experiment: Luminex single antigen, iBeads (#6), IVIg 1:8
[17] = target: HLA-B*2705 (B27) single antigen on Luminex beads (human); experiment: Luminex single antigen, iBeads (#6), IVIg 1:8
[18] = target: HLA-B*3501 (B35) single antigen on Luminex beads (human); experiment: Luminex single antigen, iBeads (#6), IVIg 1:8
[19] = target: HLA-B*4601 (B46) single antigen on Luminex beads (human); experiment: Luminex single antigen, iBeads (#6), IVIg 1:8
[20] = target: HLA-B*4101 (B41) single antigen on Luminex beads (human); experiment: Luminex single antigen, iBeads (#6), IVIg 1:8
[21] = target: HLA-B*2708 (B27) single antigen on Luminex beads (human); experiment: Luminex single antigen, iBeads (#6), IVIg 1:8
[22] = target: HLA-B*3901 (B39) single antigen on Luminex beads (human); experiment: Luminex single antigen, iBeads (#6), IVIg 1:8
[23] = target: HLA-B*3701 (B37) single antigen on Luminex beads (human); experiment: Luminex single antigen, iBeads (#6), IVIg 1:8
[24] = target: HLA-B*4403 (B44) single antigen on Luminex beads (human); experiment: Luminex single antigen, iBeads (#6), IVIg 1:8
[25] = target: HLA-B*4701 (B47) single antigen on Luminex beads (human); experiment: Luminex single antigen, iBeads (#6), IVIg 1:8
[26] = target: HLA-B*3801 (B38) single antigen on Luminex beads (human); experiment: Luminex single antigen, iBeads (#6), IVIg 1:8
[27] = target: HLA-B*4001 (B60) single antigen on Luminex beads (human); experiment: Luminex single antigen, iBeads (#6), IVIg 1:8
[28] = target: Albumin on negative control beads (serum albumin, HSA/BSA) (human or bovine); experiment: Luminex single antigen beads, regular beads (#7), 1:8
[29] = target: HLA-A*0301 (A3) on single antigen beads (human) (UniProt P04439); experiment: as above
[30] = target: HLA-A*0301 (A3) on single antigen beads (human) (UniProt P04439); experiment: Luminex, iBead MFI against regular bead MFI, 1:8

IVIg Sandoglobulin (Novartis, Basel, Switzerland) (antibody)
MFI (HLA-B*1510 (B71) (human)): 271 MFI
MFI (HLA-B*1801 (B18) (human)): 114 MFI
MFI [1]: 667 MFI
MFI (HLA-B*1402 (B65) (human)): 152 MFI
MFI (HLA-B*1401 (B64) (human)): 206 MFI
MFI (HLA-B*1513 (B77) (human)): 445 MFI
MFI (HLA-B*1301 (B13) (human)): 504 MFI
MFI (HLA-B*1516 (B63) (human)): 756 MFI
MFI (HLA-B*1502 (B75) (human)): 245 MFI
MFI (HLA-B*1511 (B75) (human)): 552 MFI
MFI (HLA-B*1503 (B72) (human)): 0 MFI
MFI (HLA-B*1501 (B62) (human)): 148 MFI
MFI (HLA-B*0801 (B8) (human)): 274 MFI
MFI (HLA-B*0702 (B7) (human)): 436 MFI
MFI [2]: 295 MFI
MFI [3]: 769 MFI
MFI [4]: 768 MFI
MFI [5]: 932 MFI
MFI [6]: 307 MFI
MFI [7]: 526 MFI
MFI [8]: 564 MFI
MFI [9]: 596 MFI
MFI [10]: 788 MFI
MFI [11]: 316 MFI

Octagam (IVIg, Octapharma, Lachen, Switzerland) (antibody)
MFI [12]: 167 MFI
MFI [13]: 0 MFI
MFI [14]: 702 MFI
MFI [15]: 0 MFI
MFI [16]: 308 MFI
MFI [17]: 0 MFI
MFI [18]: 0 MFI
MFI [19]: 526 MFI
MFI [20]: 0 MFI
MFI [21]: 0 MFI
MFI [22]: 0 MFI
MFI [23]: 0 MFI
MFI [24]: 698 MFI
MFI [25]: 955 MFI
MFI [26]: 0 MFI
MFI [27]: 4 MFI
MFI [28]: 2340 MFI
MFI [29]: 515 MFI
Difference % (iBead against regular bead) [30]: -100%
